According to patent US20250263490A1 (VIB VZW, published 2025):

B1: anti-CI-M6PR VHH3 (VHH)
VHH: QVQLQESGGGLVQPGGSLRLSCAAFGLNFKNFDMIWFRQAPGEERDIVAAISSSSSTIWYEDSVKGRFTISRDNAKNTVYLQMNSLKPEDTAVYYCAAALTSWRRPDYWGQGTQVTVSS
notes: His6-tagged; made in Pichia pastoris
B2: anti-CI-M6PR VHH4 (VHH)
VHH: QVQLQESGGGLVQAGGSLRLSCAASGRTFSNYVMGWFRQAPGKEREFVGSISQGGKMTYYPDSVKGRFTISRDNAKNTMYLQMDGLKPEDTAVYYCAVSRGYPMVRVSEVDYWGQGTQVTVSS
notes: as for B1
B3: anti-CI-M6PR VHH5 (VHH)
VHH: QVQLQESGGGLVQAGGSLKLSCAAAGRTFSRLAMGWFRQAPGKEREFVAAISENGDSIHYSDSVKGRFAVSRDNAKNTVYLQMNSLKPEDTAIYYCAADRAAYYCSGSGCYPSRAPAAASYDYWGQGTQVTVSS
notes: His6-tagged; made in Pichia pastoris, later also in E. coli WK6
B4: anti-CI-M6PR VHH1 (VHH)
VHH: QVQLQESGGGLVQPGGSLRLSCVASGFTFDRYWMNWLRQIPGKEIEWVSTINTGGTGTYYDDSVKGRFSISRDDAKNTLYLTMNSLKTEDTAVYYCARGATYYRGNSAIRGQGTQVTVSS
notes: as for B3
B5: anti-CI-M6PR VHH9 (VHH)
VHH: QVQLQESGGGLVQAGGSLRLSCAASGTILSIKTMGWYRQAPGKEREWVATITSSSIPMYADSVKGRFTISRDDAKNTVYLQMNSLKPEDTGVYYCNAPWTDYWGQGTQVTVSS
notes: as for B1
B6: anti-CI-M6PR VHH7 (VHH)
VHH: QVQLQESGGGLVQPGGSLRLSCAASGIIFSDNRMDWYRQAPGKQREWVATLASYGWKTYADSVKGRFTISRDNTKNTVYLRMNSLKPEDTAVYYCKASSPVLNDIWGQGTQVTVSS
notes: His6-tagged (Pichia pastoris)
B7: anti-CI-M6PR VHH6 (VHH)
VHH: QVQLQESGGGLVQAGGSLRLSCAVSGSISSIGGMGWFRQAPGKQREFVAVILNNSGMTSYADSVKGRFTISRGNSKNTMYLQMNSLKPEDTAVYYCNYSGYWGQGTQVTVSS
notes: His6-tagged; made in E. coli
B8: anti-CI-M6PR VHH11 (VHH)
VHH: QVQLQESGGGLVQAGDSLKLSCTASGPTFSEITGGWFRQVPGKEREFVASISSTGITTYYTDSVKGRFTVSRDNAKNTMYLQMNSLKPEDTGVYYCAARSTSRSIAITVGYDYWGQGTQVTVSS
notes: as for B1
B9: anti-CI-M6PR VHH8 (VHH)
VHH: QVQLQESGGGLVQAGGSLRLSCEASGRTFNTYNWGWFRQAPGKEREFVAAIRWSSSKTSYADSVKGRFTISRDNAKNTIYLQMNSLKPEDTAVYYCAASIVDFTTNPSHFGSWGQGTQVTVSS
notes: His6-tagged (Pichia pastoris)
B10: anti-CI-M6PR VHH10 (VHH)
VHH: QVQLQESGGGSVQAGGSLRLSCAPAGRTFSRIRMGWFRQAPGKEREFVAAISSGGLSYYADSMKGRFTISRDNAKNTVLLQMNSLEPDDTAVYYCAAVLNDYIDDYVARNPTLYDYWGQGTQVTVSS
notes: as for B1

Tests used:
[1] = target: T1, recombinant human domain 1-3His6 of the cation-independent mannose-6-phosphate receptor (human, UniProt P11717 41-467); assay: BLI exp 2, dissoc pH 7.4
T1 construct: Biotinylated (NHS-PEG4-biotin) for BLI; Glycosylated; also called hDom1-3His6; hCI-M6PRD1-D3
Experimental: (§1) For each of the 11 anti-CI-M6PR VHHs, a biolayer interferometry (BLI) experiment was performed in which the hDom₁₋₃His₆ was biotinylated and coupled to streptavidin biosensor tips. Afterwards, the tips were incubated with serially diluted VHHs during the association phase and dissociation was performed at pH 7.4. Similarly, dissociation was performed at pH 7.0, pH 6.0 and pH 5.0 as well after regeneration of the biosensor tips. […] The anti-CI-M6PR antibody (clone 2G11) and GBP were used as positive and negative controls, respectively.
(§2) Analysis of the binding kinetics was performed using an Octet Red96 (FortéBio) device with Streptavidin SA Biosensor tips (VWR 733-2145). Therefore, 1 mL of human domain₁₋₃His₆ (0.5 mg/mL in 50 mM MES, 150 mM NaCl, pH 6.5) was incubated at room temperature for 30 minutes with EZ-Link™ NHS-PEG4-Biotin (1 mg) (Thermo Fischer A39259) and NaHCO₃ (100 mM). Biotinylated human domain₁₋₃His₆ was purified using a Zeba spin desalting Column™ (7K MWCO, 2 mL, Thermo Fischer 89890) and 1 μg/mL was used for immobilization on the Streptavidin SA Biosensor tips. The loaded tips were dipped into a particular anti-CI-M6PR VHH solution, serially diluted in kinetics buffer (0.2M NaH₂PO₄, 0.1M Na⁺ citrate, 0.01% BSA, 0.002% Tween20, pH 7.4). This was followed by dissociation of the particular anti-CI-M6PR VHH in kinetics buffer of pH 7.4, followed by regeneration in Glycine (10 mM, pH 3) and neutralisation. Same cycle was repeated but the dissociation was performed at pH 7.0, 6.0, 5.0, 4.5 and 4.0. A reference well and reference sensors were subtracted from ligand sensors afterwards and Savitsky-Golay filtering was applied on the data. Fitting of the data was performed using a 1:1 model, grouped per pH of dissociation.

[2] = target: T1, recombinant human domain 1-3His6 of the …; assay: BLI exp 1, dissoc pH 7.4
Experimental: as §1, §2

[3] = target: T1, recombinant human domain 1-3His6 of the …; assay: BLI exp 1, dissoc pH 7
Experimental: as §1, §2

[4] = target: T1, recombinant human domain 1-3His6 of the …; assay: BLI at pH 7.4, 2nd of 2 repeats
[5] = target: T2, recombinant mouse domain 1-3His6 of CI-M6PR (mouse, UniProt Q07113 36-418); assay: ELISA: coated mouse CI-M6PR Domain 1-3His6, serially diluted VHH, anti-VHH-HRP, TMB, Abs 450 nm; sigmoidal regression [table at the right]
T2 construct: Genbank NM_010515.2); Range includes the signal peptide; also called mDom1-3His6; mCI-M6PRD1-D3
T2 sequence (Q07113 other isoform, or with tags, fused parts or gaps): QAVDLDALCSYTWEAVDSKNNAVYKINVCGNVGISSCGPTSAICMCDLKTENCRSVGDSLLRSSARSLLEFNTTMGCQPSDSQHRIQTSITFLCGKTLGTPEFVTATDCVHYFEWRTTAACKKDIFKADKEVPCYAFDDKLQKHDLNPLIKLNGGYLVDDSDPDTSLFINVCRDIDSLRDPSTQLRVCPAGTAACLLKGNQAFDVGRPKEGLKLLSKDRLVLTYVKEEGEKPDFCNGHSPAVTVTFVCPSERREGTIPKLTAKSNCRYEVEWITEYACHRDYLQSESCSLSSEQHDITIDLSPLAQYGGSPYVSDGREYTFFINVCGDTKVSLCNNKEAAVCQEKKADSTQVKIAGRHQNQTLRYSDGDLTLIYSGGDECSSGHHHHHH
Experimental: (§3) FIGS. 5A-5B. Affinity of anti-CI-M6PR VHHs for recombinant mouse CI-M6PR Domain 1-3His₆ determined by ELISA. (FIG. 5A) Measurement for each of the 11 anti-CI-M6PR VHHs in serial dilution binding to the coated mouse antigen. Detection was performed using an anti-VHH antibody coupled to HRP, and measured as the absorbance of the TMB substrate at 450 nm, correlating to the amount of bound VHH as plotted at the Y-axis. The Log₁₀ concentrations of the serially diluted VHHs were plotted at the X-axis.
To evaluate the cross-reactivity of the anti-CI-M6PR nanobodies between the human and mouse CI-M6PR domain 1-3His₆ antigen, ELISA was performed with the eleven serially diluted anti-CI-M6PR nanobodies. […] By performing sigmoidal regression on the derived absorbance curves, half-maximal effective concentration (EC₅₀) values of each VHH were acquired, representing the required concentration to occupy 50% of the coated antigen. As a negative control, GBP was included in the assay.

[6] = target: T1, recombinant human domain 1-3His6 of the …; assay: ELISA on coated antigen, 2nd of 2 repeats
Experimental: as §3, with “FIGS. 4A-4B.” for “FIGS. 5A-5B.”, “recombinant human” for “recombinant mouse”, “ELISA. A & B. Measurements” for “ELISA. (FIG. 5A) Measurement”, “coated human CI-M6PR Domain 1-3His₆” for “coated mouse”, “X-axis. […] A & B represent replicates but using a different concentration of human CI-M6PR Domain 1-3His₆ (in (FIG. 4A): 0-0.75 μM and in (FIG. 4B): 0-1 μM).” for “X-axis.”
We evaluated the affinity of the VHHs against the hDom₁₋₃His₆ using ELISA. Coated hDom₁₋₃His₆ was incubated with serially diluted VHH that was afterwards detected using an anti-VHH antibody, coupled to HRP.

Row | Binder | Kd [1] | koff [1] | kon [1] | Kd [2] | koff [2] | kon [2] | Kd [3] | koff [3] | kon [3] | Kd [4] | koff [4] | kon [4] | EC50 [5] | EC50 [6]
1 | B1 | 7.09 nM | 0.000345 s⁻¹ | 48600 M⁻¹ s⁻¹ | ≤ 0.000117 nM | ≤ 1e-07 s⁻¹ | 853000 M⁻¹ s⁻¹ | 0.269 nM | 0.000604 s⁻¹ | 2.24e+06 M⁻¹ s⁻¹ | 7.1 nM | 0.000345 s⁻¹ | 48600 M⁻¹ s⁻¹ | 670 nM | 0.104 nM
2 | B2 | 2.34 nM | 0.00133 s⁻¹ | 571000 M⁻¹ s⁻¹ | 2.33 nM | 0.00133 s⁻¹ | 571000 M⁻¹ s⁻¹ | 2.2 nM | 0.00126 s⁻¹ | 572000 M⁻¹ s⁻¹ | – | 0.00133 s⁻¹ | – | 873 nM | 70.1 nM
3 | B3 | – | 0.00018 s⁻¹ | 1.8e+06 M⁻¹ s⁻¹ | 0.0903 nM | 0.000124 s⁻¹ | 1.37e+06 M⁻¹ s⁻¹ | 0.346 nM | 0.000412 s⁻¹ | 1.19e+06 M⁻¹ s⁻¹ | ~0.1 nM | 0.00018 s⁻¹ | 1.8e+06 M⁻¹ s⁻¹ | 562 nM | 0.0647 nM
4 | B4 | ~11.2 nM | 0.0099 s⁻¹ | 1e+06 M⁻¹ s⁻¹ | 7.44 nM | ~0.00606 s⁻¹ | 814000 M⁻¹ s⁻¹ | 6.05 nM | ~0.00756 s⁻¹ | 1.25e+06 M⁻¹ s⁻¹ | ~11.2 nM | 0.0099 s⁻¹ | 1e+06 M⁻¹ s⁻¹ | 355 nM | 19.4 nM
5 | B5 | 0.282 nM | 0.000444 s⁻¹ | 1.57e+06 M⁻¹ s⁻¹ | 0.282 nM | 0.000444 s⁻¹ | 1.57e+06 M⁻¹ s⁻¹ | 0.476 nM | 0.00051 s⁻¹ | 1.07e+06 M⁻¹ s⁻¹ | 0.282 nM | 0.000444 s⁻¹ | 1.57e+06 M⁻¹ s⁻¹ | 2750 nM | 0.251 nM
6 | B6 | 9.08 nM | 0.0118 s⁻¹ | 1.3e+06 M⁻¹ s⁻¹ | 10.8 nM | 0.00999 s⁻¹ | 924000 M⁻¹ s⁻¹ | 8.08 nM | 0.00698 s⁻¹ | 864000 M⁻¹ s⁻¹ | 9.08 nM | 0.0118 s⁻¹ | 1.3e+06 M⁻¹ s⁻¹ | – | 1.19 nM
7 | B7 | 4.74 nM | 0.00352 s⁻¹ | 743000 M⁻¹ s⁻¹ | 3.35 nM | 0.00352 s⁻¹ | 1.05e+06 M⁻¹ s⁻¹ | 2.65 nM | 0.00227 s⁻¹ | 856000 M⁻¹ s⁻¹ | 4.74 nM | 0.00352 s⁻¹ | 743000 M⁻¹ s⁻¹ | 9750 nM | –
8 | B8 | 51 nM | 0.00391 s⁻¹ | 76700 M⁻¹ s⁻¹ | 41.4 nM | 0.00317 s⁻¹ | 76700 M⁻¹ s⁻¹ | 20.3 nM | 0.00394 s⁻¹ | 194000 M⁻¹ s⁻¹ | 51 nM | 0.00391 s⁻¹ | 76700 M⁻¹ s⁻¹ | 330 nM | 30.5 nM
9 | B9 | – | 0.00065 s⁻¹ | – | 1.69 nM | 0.000787 s⁻¹ | 465000 M⁻¹ s⁻¹ | 6.45 nM | 0.00368 s⁻¹ | 570000 M⁻¹ s⁻¹ | – | 0.00065 s⁻¹ | – | 595 nM | 0.165 nM
10 | B10 | 46.5 nM | 0.00177 s⁻¹ | 38100 M⁻¹ s⁻¹ | 46.3 nM | 0.00177 s⁻¹ | 38100 M⁻¹ s⁻¹ | – | 0.00148 s⁻¹ | 99300 M⁻¹ s⁻¹ | 46.5 nM | 0.00177 s⁻¹ | 38100 M⁻¹ s⁻¹ | 1620 nM | 0.224 nM
